The source of these data is patent US20190284292A1 (IMMUNOAH THERAPEUTICS, published 2019).

In experiment [1] the target is T1, human 4-1BB (human, UniProt Q07011 24-255).
T1 construct: whole, on cells; Also used here for the native receptor on human T cells in the co-stimulation assay; also called CD137; h4-1BB
As to the kind of experiment: binding to 293T cells expressing human 4-1BB.

For experiment [2], the target named is T1, human 4-1BB. As to the kind of experiment: flow cytometry, staining of 293T cells transfected with human 4-1BB, compared with untransfected 293T cells. In general terms: Flow cytometry measures light scatter and fluorescence of single cells or particles in a stream.

T1 sequence (Q07011 24-255): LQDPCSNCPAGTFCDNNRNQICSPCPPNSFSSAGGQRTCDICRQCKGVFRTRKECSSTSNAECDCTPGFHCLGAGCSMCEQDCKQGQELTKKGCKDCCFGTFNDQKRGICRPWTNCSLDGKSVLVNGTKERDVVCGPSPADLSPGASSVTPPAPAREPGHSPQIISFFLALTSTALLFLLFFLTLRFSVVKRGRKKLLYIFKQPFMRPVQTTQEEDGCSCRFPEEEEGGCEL

B1: ZW106 (antibody, V domains shown)
VH: QVQLQQPESELVRPGGSVKLSCKASGYTFTSYWMDWVKQRHGQGLEWIGNIYPDSGGTNYAEKFKSKATLTVDTSSSTAYMHLSSLTSEDSAVYYCTREEALGGYYELTYWGQGTLVTVSA
VL: DIVLTQSPASLPVSLGQRATISCRASQSVSTSSYSYMHWYQQKPGQPPKLLIKYASNLESGVPARFSGSGSGTDFTLNIHPVEEEDTATYYCQHSWEIPYTFGGGTKLEIE
notes: Mouse monoclonal antibody against human 4-1BB; also called clone ZW106; 4-1BB mAb
For B1, in the experiment with human 4-1BB [1], the binding result is “binds”.

B2: ZW107 (antibody, V domains shown)
VH: QVQLQQSGAELVRPGTSVKISCKASGYAFTNYWLGWVKQRPGHGLEWIGDIYPGNGNNYYSEKFKDKATLTADKSSSTVYIRLSSLTSEDSAVYFCARHGSFRSAMDYWGQGTSVTVSS
VL: DIQMTQSPASPSASVGETVTITCRASENIYSYLAWYQQKQGKSPQLLVYNAKTLADGVPSRFSGSGSGTQFSLKINSLQPEDFGSYYCQHHYGTPPTFGGGTKLEIK
notes: Mouse monoclonal antibody against human 4-1BB; also called clone ZW107; 4-1BB mAb
As to B2, the binding result with human 4-1BB [1] is “binds”.

B3: ZW103 (antibody, V domains shown)
VH: QVQLQQSGAELVRPGVSVKISCKGSGYTFTDYAMHWVKQSHVKSLEWIGGISTYNGDASYNQKFKGKATMTVDKSSRTAYMELVRLTSEDSAIYYCAPSNYGYAMDYWGQGTSVTVSS
VL: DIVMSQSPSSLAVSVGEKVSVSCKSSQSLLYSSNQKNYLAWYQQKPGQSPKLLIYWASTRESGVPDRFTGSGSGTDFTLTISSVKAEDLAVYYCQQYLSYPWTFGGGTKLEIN
notes: Mouse monoclonal antibody against human 4-1BB from a hybridoma; also called clone ZW103; 4-1BB mAb
Take B3: in the experiment with human 4-1BB [2], the binding result is “binds”.

B4: ZW104 (antibody, V domains shown)
VH: QVQLQQSGAELARPGASVKMSCKASGYIFTTYAMHWVKQRPGQGLEWIGYINPTTVYTIYNQKFKDKATLTADKSSSTAYMQLSSLTSEDSAVYYCARLGGHWYFDVWGAGTTVTVSS
VL: not shown
notes: Mouse monoclonal antibody against human 4-1BB from a hybridoma; also called clone ZW104; 4-1BB mAb
On to B4, for which the binding result with human 4-1BB [2] is recorded as “binds”.
